Experimental data from US6613957 (UAB RESEARCH FOUNDATION, dated 2003).

B1: human α-globin polypeptide (product of the human α1-globin transgene) (other)
chain: not shown
notes: Two copies stand in each hemoglobin tetramer (α2β2); also called hα
B2: mouse α-globin polypeptide (endogenous) (other)
chain: not shown
notes: Endogenous chain in the red blood cells of the transgenic mice; also called mα

Molecular target: T1, human β-globin polypeptide (product of the human β-globin transgene) (human, UniProt P68871 2-147)
T1 construct: Two copies stand in each hemoglobin tetramer (α2β2); also called hβ
T1 sequence (P68871 2-147 limits assumed): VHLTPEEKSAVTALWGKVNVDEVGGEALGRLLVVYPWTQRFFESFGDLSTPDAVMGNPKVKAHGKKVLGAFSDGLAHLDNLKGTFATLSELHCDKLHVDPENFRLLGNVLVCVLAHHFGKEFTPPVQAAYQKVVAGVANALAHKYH
Test: nondenaturing isoelectric focusing of transgenic mouse hemolysate; band excised and its chains identified on a denaturing cellulose acetate strip
From the text: Human α and β-globin mRNA detected in lung is the result of incomplete perfusion. Mouse α and β-globin mRNA are also observed in this non-erythroid tissue. (B) Nondenaturing, isoelectric focusing of transgenic mouse hemolysates. Hemolysates of control mouse (lane 1) human (lane 4) and transgenic mouse (lanes 2 and 3) blood were run on a native agarose isoelectric focusing gel and photographed without staining. (C) Denaturing cellulose acetate strip electrophoresis of transgenic mouse hemogobins. Hemoglobins were denatured in alkaline-urea buffer, electrophoresed on cellulose acetate strips, and stained with imido black.
To determine whether complete human hemoglobins were formed, we separated hemolysates of the blood of animals from two different transgenic lines by non-denaturing ioslectric focusing (IEF) (FIG. 14B). The first lane is a mouse control and the last lane is a normal human sample. The predominant band in each of the controls is the major adult hemoglobin, mouse α_2β_2 or human α_2β_2, respectively.

Binder	binding result
B1	binds
B2	binds
